According to patent US20210139579A1:
Where two headings read alike, the source gives them in different places.

Tests used:
[1] = biological target: human ROR1 (hROR1) on the cell surface (human) (UniProt Q01973); test: cell-based or functional assay
[2] = biological target: human ROR1 (hROR1) on the cell surface (human) (UniProt Q01973); test: cell-based or functional assay; remark: listed apart in the source

Sequence of human ROR1 (hROR1) on the cell surface (human) (Q01973 30-937): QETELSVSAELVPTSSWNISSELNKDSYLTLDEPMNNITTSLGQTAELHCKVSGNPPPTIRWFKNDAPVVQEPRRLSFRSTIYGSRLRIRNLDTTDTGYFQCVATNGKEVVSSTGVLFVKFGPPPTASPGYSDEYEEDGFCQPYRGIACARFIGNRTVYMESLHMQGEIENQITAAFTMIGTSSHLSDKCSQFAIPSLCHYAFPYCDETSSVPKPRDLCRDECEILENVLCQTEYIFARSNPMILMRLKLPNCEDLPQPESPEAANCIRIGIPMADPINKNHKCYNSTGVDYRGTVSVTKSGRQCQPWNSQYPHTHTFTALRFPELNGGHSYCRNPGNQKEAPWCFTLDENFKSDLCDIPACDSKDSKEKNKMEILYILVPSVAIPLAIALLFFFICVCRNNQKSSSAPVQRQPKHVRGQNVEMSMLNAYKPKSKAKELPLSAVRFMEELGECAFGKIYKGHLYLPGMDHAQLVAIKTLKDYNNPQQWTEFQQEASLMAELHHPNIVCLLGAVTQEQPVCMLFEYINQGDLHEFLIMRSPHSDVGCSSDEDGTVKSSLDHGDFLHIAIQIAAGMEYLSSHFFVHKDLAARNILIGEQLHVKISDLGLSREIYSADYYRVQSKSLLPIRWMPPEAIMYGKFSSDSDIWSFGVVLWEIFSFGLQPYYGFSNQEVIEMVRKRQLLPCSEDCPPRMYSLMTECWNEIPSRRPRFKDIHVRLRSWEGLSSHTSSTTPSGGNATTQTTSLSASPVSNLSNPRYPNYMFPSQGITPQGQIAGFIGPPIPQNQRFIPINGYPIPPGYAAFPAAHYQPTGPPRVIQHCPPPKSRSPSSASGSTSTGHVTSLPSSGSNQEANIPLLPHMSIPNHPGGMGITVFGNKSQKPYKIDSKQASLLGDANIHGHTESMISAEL

| Binder | IC50, in vitro cell killing of 697 cells [1] | IC50, in vitro cell killing of A549 cells [1] [µg/mL] | IC50, in vitro cell killing of HS 578T cells [1] [µg/mL] | IC50, in vitro cell killing of HT-29 cells [1] [µg/mL] | IC50, in vitro cell killing of MDA-MB-468 cells [1] [µg/mL] | IC50, in vitro cell killing of hROR1-overexpressing EMT-6 cells [1] [nM] | IC50, in vitro cell killing of 697 cells [2] [µg/mL] |
| --- | --- | --- | --- | --- | --- | --- | --- |
| Top43-G5-PNU (adc204) (antibody, V domains shown, EDA-PNU-159682 derivative on the C-terminal glycine (G5-PNU joined by sortase)) VH: QSLEESGGRLVTPGTPLTLTCTVSGFSLSSYWMSWVRQAPGKGLEWIGAIYGSGNTYYASWAKGRFTISKTSTTVDLKITSPTTEDTATYFCARDVHSTATDLWGPGTLVTISS VL: SYELTQLPSVSVSLGQTARITCGGNNIGSKAVNWYQQKPGLAPGLLIYNDDERPSGVPDRFSGSNSGDTATLTISGAQAGDEADYYCQLWDSSAGAYVFGGGTQLTVTG | 0.314 µg/mL | 109 | 0.707 | 23.1 | 0.463 | – | – |
| ERR1-301-G5-PNU (adc200) (antibody, V domains shown, EDA-PNU-159682 derivative on the C-terminal glycine (G5-PNU joined by sortase)) VH: QEQLEESGGGLVTPGGSLTLTCTASGFTISTYHMSWVRQAPGKGLEWIGSIYAGSGSTYYASWVNGRFTISSNTTQNTVSLQMNSLTVADTATYFCARDHPSYGMDLWGPGTLVTVSS VL: SYELTQLPSVSVSLGQTARITCGGNSIGSKAVNWYQQKPGLAPGLLIYDDDERPSGVPDRFSASNSGDTATLTISGAQAEDEADYYCQLWDSSAVAYVFGGGTQLTVTG | 0.592 µg/mL | – | – | – | – | – | – |
| XBR1-402-G5-PNU (antibody, V domains shown, EDA-PNU-159682 derivative on the C-terminal glycine (G5-PNU joined by sortase)) VH: QEQQKESGGGLFKPTDTLTLTCTASGFDISSYYMSWVRQAPGNGLEWIGAIGISGNAYYASWAKSRSTITRNTNLNTVTLKMTSLTAADTATYFCARDHPTYGMDLWGPGTLVTVSS VL: SYELTQLPSVSVSLGQTARITCEGNNIGSKAVHWYQQKPGLAPGLLIYDDDERPSGVPDRFSGSNSGDTATLTISGAQAGDEADYYCQVWDSSAYVFGGGTQLTVTG | – | 177 | 1.4 | 23.3 | – | 1.7 | – |
| R12-G5-PNU (antibody, V domains shown, EDA-PNU-159682 derivative on the C-terminal glycine (G5-PNU joined by sortase)) VH: QEQLVESGGRLVTPGGSLTLSCKASGFDFSAYYMSWVRQAPGKGLEWIATIYPSSGKTYYATWVNGRFTISSDNAQNTVDLQMNSLTAADRATYFCARDSYADDGALFNIWGPGTLVTISS VL: ELVLTQSPSVSAALGSPAKITCTLSSAHKTDTIDWYQQLQGEAPRYLMQVQSDGSYTKRPGVPDRFSGSSSGADRYLIIPSVQADDEADYYCGADYIGGYVFGGGTQLTVTG | 100 nM | – | 3.5 | 10.3 | 3.96 | – | 0.873 |
